By IC50 is commonly meant the concentration that inhibits the measured activity by half.

T1: recombinant human CEACAM-1 (R&D Systems cat. no. 2244-CM-050) (human, UniProt P13688 35-428)
T1 construct: Coated on the ELISA plate at 0.5 ug/ml
T1 sequence (looked up): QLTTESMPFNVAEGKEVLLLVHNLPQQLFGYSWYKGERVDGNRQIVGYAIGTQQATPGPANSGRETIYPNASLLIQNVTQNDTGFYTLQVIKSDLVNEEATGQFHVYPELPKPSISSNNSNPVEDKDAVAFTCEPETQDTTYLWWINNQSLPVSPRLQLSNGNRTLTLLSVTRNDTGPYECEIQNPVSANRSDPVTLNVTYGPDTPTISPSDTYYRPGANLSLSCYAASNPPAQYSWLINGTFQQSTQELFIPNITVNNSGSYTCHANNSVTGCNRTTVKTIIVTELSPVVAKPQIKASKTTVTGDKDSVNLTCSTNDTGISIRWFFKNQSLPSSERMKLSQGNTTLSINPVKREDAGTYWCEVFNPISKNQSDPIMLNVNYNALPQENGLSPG

B1: humanized anti-CEACAM-1 variant VH3/VK2, IgG1 (antibody, V domains shown)
VH: QVQLVQSGAEVKKPGASVKVSCKASGYAFTNNLIEWVRQAPGQGLEWIGVINPGSGDTNYNEKFKGRATLTADKSINTAYMELSRLRSDDTAVYYCARGDYYGGFAVDYWGQGTTVTVSS
VL: DIQMTQSPSSLSASVGDRVTITCRTSQDIGNYLNWYQQKPGKAVKLLIYYTSRLHSGVPSRFSGSGSGTDYTLTISSLQPEDIATYFCQQGKSLPRTFGGGTKVEIK
notes: Tested as human IgG1 / kappa antibody; only the variable regions are tied to this variant
B2: humanized anti-CEACAM-1 variant VH2/VK1, IgG1 (antibody, V domains shown)
VH: QVQLVQSGAEVKKPGASVKVSCKASGYAFTNNLIEWVKQAPGQGLEWIGVINPGSGDTNYNEKFKGRATLTADKSINTAYMELSRLRSDDTAVYFCARGDYYGGFAVDYWGQGTTVTVSS
VL: DIQMTQSPSSLSASVGDRVTITCRTSQDIGNYLNWYQQKPGKAVKLLIYYTSRLHSGVPSRFSGSGSGTDYTLTISSLQQEDIATYFCQQGKSLPRTFGGGTKVEIK
notes: as for B1
B3: humanized anti-CEACAM-1 variant VH3/VK1, IgG4 (S241P) (antibody, V domains shown)
VH: QVQLVQSGAEVKKPGASVKVSCKASGYAFTNNLIEWVRQAPGQGLEWIGVINPGSGDTNYNEKFKGRATLTADKSINTAYMELSRLRSDDTAVYYCARGDYYGGFAVDYWGQGTTVTVSS
VL: DIQMTQSPSSLSASVGDRVTITCRTSQDIGNYLNWYQQKPGKAVKLLIYYTSRLHSGVPSRFSGSGSGTDYTLTISSLQQEDIATYFCQQGKSLPRTFGGGTKVEIK
notes: Tested as human IgG4 (S241P) / kappa antibody; only the variable regions are tied to this variant
B4: humanized anti-CEACAM-1 variant VH1/VK3, IgG1 (antibody, V domains shown)
VH: QVQLVQSGAELKKPGASVKVSCKASGYAFTNNLIEWVKQAPGQGLEWIGVINPGSGDTNYNEKFKGRATLTADKSINTAYMELSSLTSDDSAVYFCARGDYYGGFAVDYWGQGTSVTVSS
VL: DIQMTQSPSSLSASVGDRVTITCRTSQDIGNYLNWYQQKPGKAVKLLIYYTSRLHSGVPSRFSGSGSGTDYTFTISSLQPEDIATYFCQQGKSLPRTFGGGTKVEIK
notes: as for B1
B5: humanized anti-CEACAM-1 variant VH2/VK3, IgG4 (S241P) (antibody, V domains shown)
VH: QVQLVQSGAEVKKPGASVKVSCKASGYAFTNNLIEWVKQAPGQGLEWIGVINPGSGDTNYNEKFKGRATLTADKSINTAYMELSRLRSDDTAVYFCARGDYYGGFAVDYWGQGTTVTVSS
VL: DIQMTQSPSSLSASVGDRVTITCRTSQDIGNYLNWYQQKPGKAVKLLIYYTSRLHSGVPSRFSGSGSGTDYTFTISSLQPEDIATYFCQQGKSLPRTFGGGTKVEIK
notes: as for B3
B6: humanized anti-CEACAM-1 variant VH3/VK3, IgG1 (antibody, V domains shown)
VH: QVQLVQSGAEVKKPGASVKVSCKASGYAFTNNLIEWVRQAPGQGLEWIGVINPGSGDTNYNEKFKGRATLTADKSINTAYMELSRLRSDDTAVYYCARGDYYGGFAVDYWGQGTTVTVSS
VL: DIQMTQSPSSLSASVGDRVTITCRTSQDIGNYLNWYQQKPGKAVKLLIYYTSRLHSGVPSRFSGSGSGTDYTFTISSLQPEDIATYFCQQGKSLPRTFGGGTKVEIK
notes: as for B1
B7: humanized anti-CEACAM-1 variant VH2/VK2, IgG4 (S241P) (antibody, V domains shown)
VH: QVQLVQSGAEVKKPGASVKVSCKASGYAFTNNLIEWVKQAPGQGLEWIGVINPGSGDTNYNEKFKGRATLTADKSINTAYMELSRLRSDDTAVYFCARGDYYGGFAVDYWGQGTTVTVSS
VL: DIQMTQSPSSLSASVGDRVTITCRTSQDIGNYLNWYQQKPGKAVKLLIYYTSRLHSGVPSRFSGSGSGTDYTLTISSLQPEDIATYFCQQGKSLPRTFGGGTKVEIK
notes: as for B3
B8: humanized anti-CEACAM-1 variant VH1/VK2, IgG1 (antibody, V domains shown)
VH: QVQLVQSGAELKKPGASVKVSCKASGYAFTNNLIEWVKQAPGQGLEWIGVINPGSGDTNYNEKFKGRATLTADKSINTAYMELSSLTSDDSAVYFCARGDYYGGFAVDYWGQGTSVTVSS
VL: DIQMTQSPSSLSASVGDRVTITCRTSQDIGNYLNWYQQKPGKAVKLLIYYTSRLHSGVPSRFSGSGSGTDYTLTISSLQPEDIATYFCQQGKSLPRTFGGGTKVEIK
notes: as for B1
B9: humanized anti-CEACAM-1 variant VH2/VK1, IgG4 (S241P) (antibody, V domains shown)
VH: QVQLVQSGAEVKKPGASVKVSCKASGYAFTNNLIEWVKQAPGQGLEWIGVINPGSGDTNYNEKFKGRATLTADKSINTAYMELSRLRSDDTAVYFCARGDYYGGFAVDYWGQGTTVTVSS
VL: DIQMTQSPSSLSASVGDRVTITCRTSQDIGNYLNWYQQKPGKAVKLLIYYTSRLHSGVPSRFSGSGSGTDYTLTISSLQQEDIATYFCQQGKSLPRTFGGGTKVEIK
notes: as for B3
B10: humanized anti-CEACAM-1 variant VH1/VK3, IgG4 (S241P) (antibody, V domains shown)
VH: QVQLVQSGAELKKPGASVKVSCKASGYAFTNNLIEWVKQAPGQGLEWIGVINPGSGDTNYNEKFKGRATLTADKSINTAYMELSSLTSDDSAVYFCARGDYYGGFAVDYWGQGTSVTVSS
VL: DIQMTQSPSSLSASVGDRVTITCRTSQDIGNYLNWYQQKPGKAVKLLIYYTSRLHSGVPSRFSGSGSGTDYTFTISSLQPEDIATYFCQQGKSLPRTFGGGTKVEIK
notes: as for B3
B11: humanized anti-CEACAM-1 variant VH1/VK1, IgG1 (antibody, V domains shown)
VH: QVQLVQSGAELKKPGASVKVSCKASGYAFTNNLIEWVKQAPGQGLEWIGVINPGSGDTNYNEKFKGRATLTADKSINTAYMELSSLTSDDSAVYFCARGDYYGGFAVDYWGQGTSVTVSS
VL: DIQMTQSPSSLSASVGDRVTITCRTSQDIGNYLNWYQQKPGKAVKLLIYYTSRLHSGVPSRFSGSGSGTDYTLTISSLQQEDIATYFCQQGKSLPRTFGGGTKVEIK
notes: as for B1
B12: humanized anti-CEACAM-1 variant VH3/VK3, IgG4 (S241P) (antibody, V domains shown)
VH: QVQLVQSGAEVKKPGASVKVSCKASGYAFTNNLIEWVRQAPGQGLEWIGVINPGSGDTNYNEKFKGRATLTADKSINTAYMELSRLRSDDTAVYYCARGDYYGGFAVDYWGQGTTVTVSS
VL: DIQMTQSPSSLSASVGDRVTITCRTSQDIGNYLNWYQQKPGKAVKLLIYYTSRLHSGVPSRFSGSGSGTDYTFTISSLQPEDIATYFCQQGKSLPRTFGGGTKVEIK
notes: as for B3
B13: humanized anti-CEACAM-1 variant VH1/VK2, IgG4 (S241P) (antibody, V domains shown)
VH: QVQLVQSGAELKKPGASVKVSCKASGYAFTNNLIEWVKQAPGQGLEWIGVINPGSGDTNYNEKFKGRATLTADKSINTAYMELSSLTSDDSAVYFCARGDYYGGFAVDYWGQGTSVTVSS
VL: DIQMTQSPSSLSASVGDRVTITCRTSQDIGNYLNWYQQKPGKAVKLLIYYTSRLHSGVPSRFSGSGSGTDYTLTISSLQPEDIATYFCQQGKSLPRTFGGGTKVEIK
notes: as for B3
B14: humanized anti-CEACAM-1 variant VH1/VK1, IgG4 (S241P) (antibody, V domains shown)
VH: QVQLVQSGAELKKPGASVKVSCKASGYAFTNNLIEWVKQAPGQGLEWIGVINPGSGDTNYNEKFKGRATLTADKSINTAYMELSSLTSDDSAVYFCARGDYYGGFAVDYWGQGTSVTVSS
VL: DIQMTQSPSSLSASVGDRVTITCRTSQDIGNYLNWYQQKPGKAVKLLIYYTSRLHSGVPSRFSGSGSGTDYTLTISSLQQEDIATYFCQQGKSLPRTFGGGTKVEIK
notes: as for B3
B15: humanized anti-CEACAM-1 variant VH4/VK1, IgG1 (antibody, V domains shown)
VH: QVQLVQSGAEVKKPGASVKVSCKASGYAFTNNLIEWVRQAPGQGLEWIGVINPGSGDTNYNEKFKGRATLTADKSISTAYMELSRLRSDDTAVYYCARGDYYGGFAVDYWGQGTTVTVSS
VL: DIQMTQSPSSLSASVGDRVTITCRTSQDIGNYLNWYQQKPGKAVKLLIYYTSRLHSGVPSRFSGSGSGTDYTLTISSLQQEDIATYFCQQGKSLPRTFGGGTKVEIK
notes: as for B1
B16: humanized anti-CEACAM-1 variant VH2/VK3, IgG1 (antibody, V domains shown)
VH: QVQLVQSGAEVKKPGASVKVSCKASGYAFTNNLIEWVKQAPGQGLEWIGVINPGSGDTNYNEKFKGRATLTADKSINTAYMELSRLRSDDTAVYFCARGDYYGGFAVDYWGQGTTVTVSS
VL: DIQMTQSPSSLSASVGDRVTITCRTSQDIGNYLNWYQQKPGKAVKLLIYYTSRLHSGVPSRFSGSGSGTDYTFTISSLQPEDIATYFCQQGKSLPRTFGGGTKVEIK
notes: as for B1
B17: humanized anti-CEACAM-1 variant VH2/VK2, IgG1 (antibody, V domains shown)
VH: QVQLVQSGAEVKKPGASVKVSCKASGYAFTNNLIEWVKQAPGQGLEWIGVINPGSGDTNYNEKFKGRATLTADKSINTAYMELSRLRSDDTAVYFCARGDYYGGFAVDYWGQGTTVTVSS
VL: DIQMTQSPSSLSASVGDRVTITCRTSQDIGNYLNWYQQKPGKAVKLLIYYTSRLHSGVPSRFSGSGSGTDYTLTISSLQPEDIATYFCQQGKSLPRTFGGGTKVEIK
notes: as for B1
B18: humanized anti-CEACAM-1 variant VH3/VK1, IgG1 (antibody, V domains shown)
VH: QVQLVQSGAEVKKPGASVKVSCKASGYAFTNNLIEWVRQAPGQGLEWIGVINPGSGDTNYNEKFKGRATLTADKSINTAYMELSRLRSDDTAVYYCARGDYYGGFAVDYWGQGTTVTVSS
VL: DIQMTQSPSSLSASVGDRVTITCRTSQDIGNYLNWYQQKPGKAVKLLIYYTSRLHSGVPSRFSGSGSGTDYTLTISSLQQEDIATYFCQQGKSLPRTFGGGTKVEIK
notes: as for B1

This test has as its target T1, recombinant human CEACAM-1 (R&D Systems …). In words: competition ELISA on coated recombinant human CEACAM-1; competitor biotinylated chimeric CM-10 IgG1. From the text: The binding of the biotinylated antibody was detected with streptavidin-HRP (Sigma cat. no. S5512) and TMB substrate (Invitrogen cat. no. 00-2023). The reaction was stopped with 3M HC1, absorbance read at 450 nm on a Dynex Technologies MRX TC II plate reader and the binding curves plotted.
B1: the half-inhibitory concentration (IC50) was determined as 0.85 µg/mL and the “IC50 normalized to CM-10” value is 1.36 ratio to IC50 of chimeric CM-10.
Turning to B2, the IC50 stood at 0.68 µg/mL and the “IC50 normalized to CM-10” value is 1.29 ratio to IC50 of chimeric CM-10.
B3: the IC50 worked out at 0.71 µg/mL and the “IC50 normalized to CM-10” value was 1.16 ratio to IC50 of chimeric CM-10.
Regarding B4, the IC50 was 0.77 µg/mL and the “IC50 normalized to CM-10” value was 1.44 ratio to IC50 of chimeric CM-10.
In the same order, the values of B5 are 0.71 µg/mL and 1.16 ratio to IC50 of chimeric CM-10.
B6: the concentration for half-maximal inhibition (IC50) is 0.86 µg/mL and the “IC50 normalized to CM-10” value was 1.37 ratio to IC50 of chimeric CM-10.
On to B7, for which the IC50 stood at 0.76 µg/mL and the “IC50 normalized to CM-10” value is 1.26 ratio to IC50 of chimeric CM-10.
For B8, in that order: 0.7 µg/mL and 1.32 ratio to IC50 of chimeric CM-10.
In the same order, the values of B9 are 0.43 µg/mL and 0.84 ratio to IC50 of chimeric CM-10.
For B10, in that order: 0.54 µg/mL and 1.05 ratio to IC50 of chimeric CM-10.
With B11, the half-maximal inhibitory concentration (IC50) turned out to be 0.78 µg/mL and the “IC50 normalized to CM-10” value is 1.46 ratio to IC50 of chimeric CM-10.
For B12, in that order: 0.73 µg/mL and 1.23 ratio to IC50 of chimeric CM-10.
B13: the half-inhibitory concentration (IC50) worked out at 0.7 µg/mL and the “IC50 normalized to CM-10” value was 1.36 ratio to IC50 of chimeric CM-10.
B14: the IC50 amounted to 0.78 µg/mL and the “IC50 normalized to CM-10” value is 1.52 ratio to IC50 of chimeric CM-10.
For B15, in that order: 0.73 µg/mL and 1.15 ratio to IC50 of chimeric CM-10.
For B16, in that order: 0.76 µg/mL and 1.21 ratio to IC50 of chimeric CM-10.
B17: the IC50 was 0.78 µg/mL and the “IC50 normalized to CM-10” value is 1.24 ratio to IC50 of chimeric CM-10.
In the case of B18, the IC50 worked out at 0.69 µg/mL and the “IC50 normalized to CM-10” value is 1.1 ratio to IC50 of chimeric CM-10.
